Patent publication US10196454B2, “Anti-PMEL17 antibodies and immunoconjugates” (GENENTECH, INC., priority 2012, dated 2019)

Columns and labels:
human PMEL17 [1] = molecular target: T1, human PMEL17 (Homo sapiens, UniProt P40967); experiment: FACS screening of anti-PMEL17 hybridoma antibodies on live cells; format: binding; conditions: live melanoma cells, normal human melanocytes, PC3 cell line stably expressing PMEL17 cDNA
T1 construct: endogenous in cells; host or cells: SK-MEL-23, 1300mel, SKMEL5 (ATCC HTB-70), UACC257, normal melanocytes (Invitrogen); also PC3 stably expressing human PMEL17
T1 sequence (P40967 25-469): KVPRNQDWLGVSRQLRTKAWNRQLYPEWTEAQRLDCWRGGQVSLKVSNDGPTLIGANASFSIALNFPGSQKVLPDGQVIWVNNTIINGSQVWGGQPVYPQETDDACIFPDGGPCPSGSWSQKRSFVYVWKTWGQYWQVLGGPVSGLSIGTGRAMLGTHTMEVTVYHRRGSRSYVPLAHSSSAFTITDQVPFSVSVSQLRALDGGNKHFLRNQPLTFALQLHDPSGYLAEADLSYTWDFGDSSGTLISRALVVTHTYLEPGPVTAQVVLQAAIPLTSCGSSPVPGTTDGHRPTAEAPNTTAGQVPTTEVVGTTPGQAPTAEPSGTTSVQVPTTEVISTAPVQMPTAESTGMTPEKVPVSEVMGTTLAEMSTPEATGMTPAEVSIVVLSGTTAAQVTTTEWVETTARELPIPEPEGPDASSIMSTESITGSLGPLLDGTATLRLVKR
T1 sequence (P40967 470-661): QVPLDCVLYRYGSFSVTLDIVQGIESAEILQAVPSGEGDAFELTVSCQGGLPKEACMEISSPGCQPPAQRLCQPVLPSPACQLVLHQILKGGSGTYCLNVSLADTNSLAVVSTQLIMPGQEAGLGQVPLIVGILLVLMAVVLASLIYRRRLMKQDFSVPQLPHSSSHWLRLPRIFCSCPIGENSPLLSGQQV

human PMEL17 [2] = experiment: as above; format: binding; conditions: parental PC3 cell line
cynomolgus monkey PMEL17 = experiment: Species cross-reactivity by FACS, 293S cells stably transfected with gD tagged PMEL17; format: binding; conditions: 10 μg/ml antibody
Sequence of cynomolgus monkey PMEL17 (as listed by the source): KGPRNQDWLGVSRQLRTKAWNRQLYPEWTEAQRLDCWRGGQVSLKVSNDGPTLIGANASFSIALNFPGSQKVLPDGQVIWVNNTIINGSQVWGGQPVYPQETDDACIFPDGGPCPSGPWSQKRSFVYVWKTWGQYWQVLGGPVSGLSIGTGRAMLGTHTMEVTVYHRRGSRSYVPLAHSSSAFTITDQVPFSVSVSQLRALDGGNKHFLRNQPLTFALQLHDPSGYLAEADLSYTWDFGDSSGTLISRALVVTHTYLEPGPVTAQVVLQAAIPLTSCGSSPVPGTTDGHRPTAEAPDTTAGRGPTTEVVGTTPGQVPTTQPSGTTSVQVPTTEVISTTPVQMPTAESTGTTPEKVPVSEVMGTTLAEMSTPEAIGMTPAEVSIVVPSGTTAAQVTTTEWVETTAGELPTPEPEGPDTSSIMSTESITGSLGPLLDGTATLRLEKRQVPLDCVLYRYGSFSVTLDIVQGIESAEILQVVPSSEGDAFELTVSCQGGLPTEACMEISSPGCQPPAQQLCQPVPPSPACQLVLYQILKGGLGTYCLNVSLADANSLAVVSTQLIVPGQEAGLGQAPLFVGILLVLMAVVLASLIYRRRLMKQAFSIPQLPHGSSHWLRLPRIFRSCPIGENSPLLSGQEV
Description: (§1) Antibody 17A9 was tested to determine if it cross-reacts with PMEL17 from species other than human. […] All of the sequences include the signal sequence except for the cynomolgus monkey PMEL17. Residues that are identical among all four species are indicated by asterisks (*). In the region where the rat sequence has a deletion, residues that are identical among the remaining three species are indicated by a plus (+). Binding to each species of PMEL17 was determined by FACS analysis using 293S cells stably transfected with an N-terminal gD tagged PMEL17 (human, cynomolgus monkey, rat, or mouse PMEL17); stained with 10 μg/ml 17A9 antibody; and detected with R-Phycoerythrin conjugated goat anti-mouse antibody.

rat PMEL17 = experiment: as above; format: binding; conditions: 10 μg/ml antibody
Description: as §1

1300mel melanoma cells = experiment: Internalization of anti-PMEL17 antibody, co-staining with lysosomal marker LAMP1; format: cell-based
normal human melanocytes = experiment: Flow cytometry of normal human melanocytes and SK-MEL-5 cells; format: binding; conditions: intensity comparable to SK-MEL-5
Text: Normal human melanocytes and SK-MEL-5 melanoma cells were reacted with chimeric 17A9, or no primary antibody, followed by Alexa 488-labeled anti-human IgG and analyzed by flow cytometry.

PMEL17 [3] = molecular target: T2, PMEL17 (Homo sapiens, UniProt P40967); experiment: Species cross-reactivity by FACS, 293S cells stably transfected with gD tagged PMEL17; format: binding; parameters: gD tag (N); expressed in transfected cells; conditions: 10 μg/ml antibody
T2 sequence (P40967 25-661): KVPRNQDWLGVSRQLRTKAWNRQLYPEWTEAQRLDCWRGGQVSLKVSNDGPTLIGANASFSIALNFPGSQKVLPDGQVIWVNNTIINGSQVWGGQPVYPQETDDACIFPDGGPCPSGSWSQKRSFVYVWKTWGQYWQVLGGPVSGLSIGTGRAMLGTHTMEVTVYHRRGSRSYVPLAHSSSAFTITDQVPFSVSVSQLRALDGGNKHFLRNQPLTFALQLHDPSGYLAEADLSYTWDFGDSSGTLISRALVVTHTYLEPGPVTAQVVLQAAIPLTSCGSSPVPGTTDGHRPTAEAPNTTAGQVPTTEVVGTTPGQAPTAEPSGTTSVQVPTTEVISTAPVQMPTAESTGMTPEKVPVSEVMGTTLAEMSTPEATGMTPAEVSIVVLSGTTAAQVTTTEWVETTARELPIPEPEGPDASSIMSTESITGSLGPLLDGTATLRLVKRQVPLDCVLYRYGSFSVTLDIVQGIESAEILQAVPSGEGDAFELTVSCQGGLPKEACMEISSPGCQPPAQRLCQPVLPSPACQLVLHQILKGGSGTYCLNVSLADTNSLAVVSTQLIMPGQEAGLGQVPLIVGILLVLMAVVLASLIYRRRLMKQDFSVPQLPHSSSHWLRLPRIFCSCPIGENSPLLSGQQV
Description: as §1

PMEL17 [4] = molecular target: T2, PMEL17; experiment: Immunohistochemistry of human melanoma tissue specimens; parameters: The expression of PMEL17 was evaluated across a panel of human melanoma tissue specimines by immunohistochemistry; from tissue; host or cells: 58 human melanoma specimens (30 primary, 28 metastatic); conditions: 58 specimens (30 primary, 28 metastatic)
Description: To assess the potential liability of targeting PMEL17 on normal melanocytes, the level of expression of this target in normal human skin was evaluated by immunohistochemistry. Immunohistochemistry (IHC) was performed on 4 μm thick formalin-fixed paraffin embedded tissue sections mounted on glass slides. All IHC steps were carried out on the Ventana Discovery XT (Ventana Medical Systems; Tucson, Ariz.) autostainer. Pretreatment was done with Cell Conditioner 1, standard time. Primary antibody, PMEL17 clone 31D1 was used at a concentration of 10 μg/ml and was incubated on slides for 1 hour at 37° C. Ventana Mouse OmniMap (Ventana Medical Systems; AZ) was used as the detection system. […]
The expression of PMEL17 was evaluated across a panel of human melanoma tissue specimines by immunohistochemistry substantially as described above, using both 17A9 and 31D1. Staining was scored on an arbitrary scale ranging from zero, for absent, to 3+ for most intense: • 0 (negative): very weak or no staining in >90% of melanoma cells • 1+(mild): predominant staining pattern is weak • 2+(moderate): predominant staining pattern is moderately strong in the majority (>50%) of melanoma cells • 3+(strong): predominant staining pattern is strong in the majority (>50%) of melanoma cells Exemplary staining for each of the levels of the scale is shown in FIG. 7A, left panels.

B1: 17A9 (antibody, listed as Mus musculus, V domains shown)
VH: EVQLQQSGPELVKPGASMKISCKSSGYSFTRYTMNWVKQSHGKNLEWIGVINPYNGGTVYNQKFKGKATLTVDKSSSTAYMELLSLTSEDSAVYYCARTDYDGYAMDYWGQGTSVTVSS
VL: DVQITQSPSYLAASPGETITINCRATKSISKYLAWYQEQPGKTNNLLIYSGSTLQSGIPSRFSGSGSGTDFTLTISSLEPEDFAMYYCQQHNEYPYTFGSGTKLEIK
FACS reactivity with live cells expressing PMEL17 (human PMEL17 [1]): reacted strongly
FACS reactivity with parental PC3 cell line (human PMEL17 [2]): not the parental PC3 cell line
binding to cynomolgus monkey PMEL17 by FACS (cynomolgus monkey PMEL17): bind
binding to rat PMEL17 by FACS (rat PMEL17): bind
overlap of antibody and LAMP1 staining within the cells (1300mel melanoma cells; 2 μg/ml, 2 hours or 20 hours, 37° C.): considerable overlap
uptake into additional PMEL17+ melanoma cell lines (1300mel melanoma cells; 526mel, SK-MEL-5, UACC257): Rapid uptake
FACS staining of cultured normal human melanocytes (normal human melanocytes): FACS+
binding to human PMEL17 by FACS (PMEL17 [3]): bind
human melanoma specimens PMEL17+ when detected with the antibody (PMEL17 [4]): 64%
